The text below walks through data of PMC3549248, “Charcot–Marie–Tooth type 2B disease-causing RAB7A mutant proteins show altered interaction with the neuronal intermediate filament peripherin” (Acta Neuropathologica, 2012).

Assay [1] addresses T1, HA-tagged RAB7A L129F (UniProt P18067 1-207, L129F).
T1 construct: RAB7A with a CMT2B disease mutation; plasmid described previously; also called disease-causing mutant; source: Neuro2A or PC12 cells, transfected, in lysate
Put plainly: co-IP; Neuro2A cells transfected with HA- or MYC-tagged RAB7A; RIPA lysate; anti-HA or anti-MYC resin 1 h at 4 °C; blot for endogenous peripherin. The note with it: partners not purified.

Assay [2] addresses T2, HA-tagged RAB7A K157N (UniProt P18067 1-207, K157N).
T2 construct: RAB7A with a CMT2B disease mutation; plasmid described previously; also called disease-causing mutant; source: Neuro2A or PC12 cells, transfected, in lysate
Described as above. The note with it: partners not purified.

The target of assay [3] is T3, HA-tagged RAB7A V162M (UniProt P18067 1-207, V162M).
T3 construct: RAB7A with a CMT2B disease mutation; plasmid described previously; also called disease-causing mutant; source: Neuro2A or PC12 cells, transfected, in lysate
Described as above. The note with it: partners not purified.

Assay [4] concerns the target T4, HA-tagged RAB7A N161T (UniProt P18067 1-207, N161T).
T4 construct: RAB7A with a CMT2B disease mutation; plasmid described previously; also called disease-causing mutant; source: Neuro2A or PC12 cells, transfected, in lysate
The assay is described as above. The following applies: partners not purified.

Assay [5] concerns the target T5, His-tagged RAB7A L129F (UniProt P18067 1-207, L129F).
T5 construct: RAB7A with a CMT2B disease mutation, from E. coli; The pull-down text says 'the CMT2B RAB7A mutants'; also called CMT2B RAB7A mutant L129F
Put plainly: pull-down; 20 μg purified His-tagged RAB7A bound to NiNTA resin, incubated with Neuro2A cell extracts at 4 °C for 1 h; blot for peripherin. The note with it: one partner purified.

Assay [6] has as its target T6, His-tagged RAB7A N161T (UniProt P18067 1-207, N161T).
T6 construct: RAB7A with a CMT2B disease mutation, from E. coli; The pull-down text says 'the CMT2B RAB7A mutants'; also called CMT2B RAB7A mutant N161T
The description is as above. The following applies: one partner purified.

The target of assay [7] is T7, His-tagged RAB7A Q67L (UniProt P18067 1-207, Q67L).
T7 construct: RAB7A constitutively active mutant, from E. coli; also called constitutively active RAB7A Q67L mutant
The description is as above. The following applies: one partner purified.

Assay [8] addresses T8, His-tagged RAB7A V162M (UniProt P18067 1-207, V162M).
T8 construct: RAB7A with a CMT2B disease mutation, from E. coli; The pull-down text says 'the CMT2B RAB7A mutants'; also called CMT2B RAB7A mutant V162 M
Described as above. The note with it: one partner purified.

Assay [9] addresses T9, His-tagged RAB7A K157N (UniProt P18067 1-207, K157N).
T9 construct: RAB7A with a CMT2B disease mutation, from E. coli; The pull-down text says 'the CMT2B RAB7A mutants'; also called CMT2B RAB7A mutant K157 N
The assay is described as above. The note with it: one partner purified.

Assay [10] has as its target T10, pGADT7Rec-peripherin, P41219.
T10 chain: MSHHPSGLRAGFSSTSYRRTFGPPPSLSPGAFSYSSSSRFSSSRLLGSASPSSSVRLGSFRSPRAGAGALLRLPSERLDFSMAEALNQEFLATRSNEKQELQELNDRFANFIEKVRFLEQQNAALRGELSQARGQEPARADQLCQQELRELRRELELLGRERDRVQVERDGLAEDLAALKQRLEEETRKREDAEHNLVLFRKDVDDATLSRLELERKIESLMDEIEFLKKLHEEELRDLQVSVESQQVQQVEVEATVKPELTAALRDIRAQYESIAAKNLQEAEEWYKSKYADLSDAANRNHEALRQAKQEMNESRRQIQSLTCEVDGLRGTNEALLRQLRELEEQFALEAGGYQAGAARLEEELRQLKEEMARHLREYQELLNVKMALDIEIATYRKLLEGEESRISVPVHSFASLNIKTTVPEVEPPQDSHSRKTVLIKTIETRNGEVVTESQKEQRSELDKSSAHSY
In words: yeast two-hybrid β-galactosidase liquid assay. The following applies: chain shown with the change; ONPG as substrate; parent: est. 80; read off a plot.

B1: peripherin (endogenous, Neuro2A cells) (natural protein, mouse (endogenous in Neuro2A), UniProt P15331 1-475, looked up)
chain: MPSSASMSHHHSSGLRSSISSTSYRRTFGPPPSLSPGAFSYSSSSRFSSSRLLGSGSPSSSARLGSFRAPRAGALRLPSERLDFSMAEALNQEFLATRSNEKQELQELNDRFANFIEKVRFLEQQNAALRGELSQARGQEPARADQLCQQELRELRRELELLGRERDRVQVERDGLAEDLAALKQRLEEETRKREDAEHNLVLFRKDVDDATLSRLELERKIESLMDEIEFLKKLHEEELRDLQVSVESQQVQQVEVEATVKPELTAALRDIRAQYENIAAKNLQEAEEWYKSKYADLSDAANRNHEALRQAKQEMNESRRQIQSLTCEVDGLRGTNEALLRQLRELEEQFALEAGGYQAGAARLEEELRQLKEEMARHLREYQELLNVKMALDIEIATYRKLLEGEESRISVPVHSFASLSLKTTVPEMEPLQDSHSKKMVLIRTIETRDGEKVVTESQKEQHSDLDKSSIHSY
notes: peripherin endogenous in mouse Neuro2A neuroblastoma cells, detected with anti-peripherin antibodies; main form of 58 kDa (Per-58); also called Per-58; source: endogenous, Neuro2A lysate
For the molecule B1, the “co-immunoprecipitated peripherin relative to RAB7A wt” value in [1], in assay [2], in assay [3] and in assay [4] was approximately 60 % more than RAB7A wt throughout. In addition, the “pulled-down peripherin relative to RAB7A wt” value in assay [5], in [6], in assay [7], in assay [8] and in assay [9] was 2 fold of RAB7A wt throughout.

B2: pGBKT7-RAB7A wt, P18067 V162M (protein)
chain: MTSRKKVLLKVIILGDSGVGKTSLMNQYVNKKFSNQYKATIGADFLTKEVMVDDRLVTMQIWDTAGQERFQSLGVAFYRGADCCVLVFDVTAPNTFKTLDSWRDEFLIQASPRDPENFPFVVLGNKIDLENRQVATKRAQAWCYSKNNIPYFETSAKEAINMEQAFQTIARNALKQETEVELYNEFPEPIKLDKNDRAKTSAESCSC
Consider B2, for which the response (relative units) in assay [10] turned out to be 99.

B3: pGBKT7-RAB7A wt, P18067 K157N (protein)
chain: MTSRKKVLLKVIILGDSGVGKTSLMNQYVNKKFSNQYKATIGADFLTKEVMVDDRLVTMQIWDTAGQERFQSLGVAFYRGADCCVLVFDVTAPNTFKTLDSWRDEFLIQASPRDPENFPFVVLGNKIDLENRQVATKRAQAWCYSKNNIPYFETSANEAINVEQAFQTIARNALKQETEVELYNEFPEPIKLDKNDRAKTSAESCSC
For the molecule B3, the response (relative units) in assay [10] came to 98.

B4: pGBKT7-RAB7A wt, P18067 N161T (protein)
chain: MTSRKKVLLKVIILGDSGVGKTSLMNQYVNKKFSNQYKATIGADFLTKEVMVDDRLVTMQIWDTAGQERFQSLGVAFYRGADCCVLVFDVTAPNTFKTLDSWRDEFLIQASPRDPENFPFVVLGNKIDLENRQVATKRAQAWCYSKNNIPYFETSAKEAITVEQAFQTIARNALKQETEVELYNEFPEPIKLDKNDRAKTSAESCSC
Consider B4, for which the response (relative units) in assay [10] came out at 102.

B5: pGBKT7-RAB7A wt, P18067 T22N (protein)
chain: MTSRKKVLLKVIILGDSGVGKNSLMNQYVNKKFSNQYKATIGADFLTKEVMVDDRLVTMQIWDTAGQERFQSLGVAFYRGADCCVLVFDVTAPNTFKTLDSWRDEFLIQASPRDPENFPFVVLGNKIDLENRQVATKRAQAWCYSKNNIPYFETSAKEAINVEQAFQTIARNALKQETEVELYNEFPEPIKLDKNDRAKTSAESCSC
B5: in assay [10], the response (relative units) came out at 115.
